Paper PMC5777261 (The Journal of Biological Chemistry, 2017)
Values belong to the substance of their own block, whether it stands above or below them.

Assays:
Assay in all cases: radioligand binding; HEK293 cells expressing ACKR3-YFP or mutants, pretreated 5 min at 37 °C with 100 μM phenylarsine oxide; 50 pM 125I-CXCL12 tracer in 50 mM HEPES pH 7.4, 5 mM MgCl2, 1 mM CaCl2, 0.2% BSA, with or without unlabeled CXCL12 or CXCL11, 30 min at 37 °C; bound label counted in a γ counter; IC50 taken as proxy for ligand affinity
[1] = molecular target: ACKR3 D141N-YFP (UniProt P25106)
[2] = molecular target: ACKR3 N127D-YFP (UniProt P25106)
[3] = molecular target: ACKR3 D90N-YFP (UniProt P25106)
[4] = molecular target: ACKR3 N127S-YFP (UniProt P25106)
[5] = molecular target: ACKR3 Y315A-YFP (UniProt P25106)
[6] = molecular target: ACKR3 R142A-YFP (UniProt P25106)
[7] = molecular target: ACKR3-YFP (wildtype ACKR3 fused C-terminally to YFP) (UniProt P25106)
[8] = molecular target: ACKR3 N127K-YFP (UniProt P25106)
[9] = molecular target: ACKR3 Y143A-YFP (UniProt P25106)
Chain of ACKR3 Y143A-YFP (P25106 whole entry Y143A): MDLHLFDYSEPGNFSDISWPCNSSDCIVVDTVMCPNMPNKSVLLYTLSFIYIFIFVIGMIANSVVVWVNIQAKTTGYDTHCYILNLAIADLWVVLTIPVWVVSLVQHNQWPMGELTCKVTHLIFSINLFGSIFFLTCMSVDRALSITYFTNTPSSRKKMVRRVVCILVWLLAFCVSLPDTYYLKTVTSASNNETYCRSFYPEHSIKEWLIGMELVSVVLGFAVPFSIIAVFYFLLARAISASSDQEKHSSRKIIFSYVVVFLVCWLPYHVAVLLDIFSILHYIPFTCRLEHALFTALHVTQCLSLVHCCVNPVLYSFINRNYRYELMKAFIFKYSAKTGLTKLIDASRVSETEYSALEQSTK

Chain of ACKR3 Y315A-YFP (P25106 whole entry Y315A): as the sequence (P25106 whole entry Y143A) above, with A143Y, Y315A counted along it
Chain of CXCL12 (unlabeled recombinant chemokine) (P48061 22-93): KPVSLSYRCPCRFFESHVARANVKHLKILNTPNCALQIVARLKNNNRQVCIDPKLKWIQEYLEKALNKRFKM
Chain of ^125I-CXCL12 radiolabel tracer (P48061 22-93): as above
Chain of ACKR3 N127D-YFP (P25106 whole entry N127D): as the sequence (P25106 whole entry Y143A) above, with N127D, A143Y counted along it
Chain of ACKR3-YFP (wildtype ACKR3 fused C-terminally to YFP) (P25106 whole entry, the tested form may be a part): as the sequence (P25106 whole entry Y143A) above, with A143Y counted along it
Chain of ACKR3 R142A-YFP (P25106 whole entry R142A, the tested form may be a part): as the sequence (P25106 whole entry Y143A) above, with R142A, A143Y counted along it
Chain of ACKR3 D90N-YFP (P25106 whole entry D90N): as the sequence (P25106 whole entry Y143A) above, with D90N, A143Y counted along it
Chain of ACKR3 N127S-YFP (P25106 whole entry N127S): as the sequence (P25106 whole entry Y143A) above, with N127S, A143Y counted along it
Chain of ACKR3 N127K-YFP (P25106 whole entry N127K): as the sequence (P25106 whole entry Y143A) above, with N127K, A143Y counted along it
Chain of ACKR3 D141N-YFP (P25106 whole entry D141N): as the sequence (P25106 whole entry Y143A) above, with D141N, A143Y counted along it

Log IC50 [1]: -9.1
IC50 [2]: 10.9 nM
Log IC50 [2]: -8.2
IC50 [3]: 12.1 nM
Log IC50 [3]: -7.9
IC50 [4]: 1.7 nM
Log IC50 [4]: -8.8
IC50 [5]: 24.7 nM
Log IC50 [5]: -7.7
IC50 [6]: 45.1 nM
Log IC50 [6]: -7.4
IC50 [7]: 5.9 nM
Log IC50 [7]: -8.2
IC50 [8]: 9.9 nM
Log IC50 [8]: -8.1
IC50 [9]: 3 nM
Log IC50 [9]: -8.5
Substance: CXCL12 (unlabeled recombinant chemokine) (from UniProt P48061 22-93) (ligand)

125I-CXCL12 tracer binding, % of ACKR3 (the pair that is blocked) [1]: 64%
125I-CXCL12 tracer binding, % of ACKR3 (the pair that is blocked) [2]: 70%
125I-CXCL12 tracer binding, % of ACKR3 (the pair that is blocked) [3]: 92%
125I-CXCL12 tracer binding, % of ACKR3 (the pair that is blocked) [4]: 87%
125I-CXCL12 tracer binding, % of ACKR3 (the pair that is blocked) [5]: 69%
125I-CXCL12 tracer binding, % of ACKR3 (the pair that is blocked) [6]: 66%
125I-CXCL12 tracer binding, % of ACKR3 (the pair that is blocked) [7]: 100%
125I-CXCL12 tracer binding, % of ACKR3 (the pair that is blocked) [8]: 83%
125I-CXCL12 tracer binding, % of ACKR3 (the pair that is blocked) [9]: 93%
Substance: ^125I-CXCL12 radiolabel tracer (from UniProt P48061 22-93) (ligand)
